Experimental data published in paper PMC3992933 (Peptides, 2014).
No end group written: not given here.

How the values were obtained:
[1] = target: human serum albumin (HSA) (Homo sapiens, UniProt P02768); assay: SPR spectroscopy, HBD binding to immobilized human serum albumin; conditions: in terms of absolute response and kinetic shape of binding
[2] = system: immobilized P. gingivalis hemagglutinin B (HagB); conditions: ref [2]; cited from earlier work
[3] = system: immobilized adhesins from the periodontal pathogen Porphyromonas gingivalis; conditions: ref [2], [5], [18]; cited from earlier work
[4] = target: Bla g2 from the German cockroach (Blattella germanica) (Blattella germanica); assay: SPR

HBD1: human β-defensin used as a control β-defensin; purchased from PeproTech, Inc. (DHYNCVSSGGQCLYSACPIFTKIQGTCYRGKAKCCK; ends and bridges not checked; cysteine pairing not given here)
binding to HSA compared with Bla g2 (in words) [1]: bound to immobilized HSA similar to Bla g2

histatin 5
binding to immobilized HagB (in words) [2]: bind specifically | binding to immobilized adhesins from P. gingivalis (in words) [3]: specifically bind

GIINTLQKYYCRVRGGRCAVLSCLPKEEQIGKCSTRGRKCCRRKK (ends and bridges not checked; cysteine pairing not given here) [Human β-defensin 3]
Kd [4]: 5.9 µM
